Source: patent US20230192845A1 (BLINK BIOMEDICAL, published 2023)

T1: human CD96 long isoform v1 transiently expressed on CHO cells (human, UniProt P40200 22-585)
T1 construct: also called hCD96v1; CD96v1
T1 sequence: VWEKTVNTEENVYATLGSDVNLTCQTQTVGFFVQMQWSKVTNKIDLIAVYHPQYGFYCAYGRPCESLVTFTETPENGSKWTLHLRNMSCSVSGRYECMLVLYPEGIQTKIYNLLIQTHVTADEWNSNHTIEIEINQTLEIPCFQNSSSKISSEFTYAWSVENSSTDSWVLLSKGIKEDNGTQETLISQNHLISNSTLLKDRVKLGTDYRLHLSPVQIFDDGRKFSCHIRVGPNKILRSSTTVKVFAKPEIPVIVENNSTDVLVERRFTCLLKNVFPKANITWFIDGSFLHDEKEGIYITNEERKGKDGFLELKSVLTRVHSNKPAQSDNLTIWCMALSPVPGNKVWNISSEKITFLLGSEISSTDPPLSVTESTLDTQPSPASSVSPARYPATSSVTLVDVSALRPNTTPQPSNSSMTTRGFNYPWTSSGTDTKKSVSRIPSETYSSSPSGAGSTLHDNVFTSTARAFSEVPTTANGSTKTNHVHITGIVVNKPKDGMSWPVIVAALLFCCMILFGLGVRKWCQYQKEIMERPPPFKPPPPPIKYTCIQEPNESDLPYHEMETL

T2: rhesus CD96 transiently expressed on CHO cells (rhesus, UniProt P40200 22-585 (human entry))
T2 construct: also called rhesus CD96, short isoform
T2 chain: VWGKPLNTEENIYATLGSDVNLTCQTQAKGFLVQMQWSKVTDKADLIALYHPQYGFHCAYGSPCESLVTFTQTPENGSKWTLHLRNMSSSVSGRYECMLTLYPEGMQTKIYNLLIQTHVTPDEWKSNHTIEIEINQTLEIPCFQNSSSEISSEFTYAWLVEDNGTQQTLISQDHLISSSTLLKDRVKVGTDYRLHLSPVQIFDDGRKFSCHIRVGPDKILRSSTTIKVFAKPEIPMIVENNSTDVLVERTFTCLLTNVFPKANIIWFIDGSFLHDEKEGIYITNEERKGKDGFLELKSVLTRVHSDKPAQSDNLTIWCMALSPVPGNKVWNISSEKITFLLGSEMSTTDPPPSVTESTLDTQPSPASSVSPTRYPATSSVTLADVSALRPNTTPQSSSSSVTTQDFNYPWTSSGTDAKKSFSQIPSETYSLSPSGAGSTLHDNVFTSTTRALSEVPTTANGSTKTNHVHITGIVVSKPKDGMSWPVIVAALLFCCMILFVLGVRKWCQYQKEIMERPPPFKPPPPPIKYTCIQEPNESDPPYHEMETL

T3: human CD96 short isoform v2 expressed on CHO cells (human, UniProt P40200 22-585)
T3 construct: also called hCD96v2; CD96v2; not shown: C-terminal HA-tag
T3 sequence: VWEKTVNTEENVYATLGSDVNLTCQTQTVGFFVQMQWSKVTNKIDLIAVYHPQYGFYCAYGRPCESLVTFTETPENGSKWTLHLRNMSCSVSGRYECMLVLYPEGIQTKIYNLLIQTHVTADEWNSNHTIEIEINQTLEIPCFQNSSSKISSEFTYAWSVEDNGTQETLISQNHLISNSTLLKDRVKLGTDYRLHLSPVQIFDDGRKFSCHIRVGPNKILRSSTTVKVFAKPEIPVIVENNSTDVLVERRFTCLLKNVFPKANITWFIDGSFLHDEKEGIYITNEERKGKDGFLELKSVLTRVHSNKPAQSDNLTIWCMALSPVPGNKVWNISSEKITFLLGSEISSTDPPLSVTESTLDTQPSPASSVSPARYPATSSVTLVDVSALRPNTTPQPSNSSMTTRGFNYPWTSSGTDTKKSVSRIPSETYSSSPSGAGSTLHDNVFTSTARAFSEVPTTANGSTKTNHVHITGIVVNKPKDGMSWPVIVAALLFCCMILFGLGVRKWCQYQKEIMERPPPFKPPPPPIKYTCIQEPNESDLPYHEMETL

T4: mouse CD96 expressed on CHO cells (mouse, UniProt Q3U0X8 22-602)
T4 construct: whole, on cells; also called mCD96
T4 sequence (looked up): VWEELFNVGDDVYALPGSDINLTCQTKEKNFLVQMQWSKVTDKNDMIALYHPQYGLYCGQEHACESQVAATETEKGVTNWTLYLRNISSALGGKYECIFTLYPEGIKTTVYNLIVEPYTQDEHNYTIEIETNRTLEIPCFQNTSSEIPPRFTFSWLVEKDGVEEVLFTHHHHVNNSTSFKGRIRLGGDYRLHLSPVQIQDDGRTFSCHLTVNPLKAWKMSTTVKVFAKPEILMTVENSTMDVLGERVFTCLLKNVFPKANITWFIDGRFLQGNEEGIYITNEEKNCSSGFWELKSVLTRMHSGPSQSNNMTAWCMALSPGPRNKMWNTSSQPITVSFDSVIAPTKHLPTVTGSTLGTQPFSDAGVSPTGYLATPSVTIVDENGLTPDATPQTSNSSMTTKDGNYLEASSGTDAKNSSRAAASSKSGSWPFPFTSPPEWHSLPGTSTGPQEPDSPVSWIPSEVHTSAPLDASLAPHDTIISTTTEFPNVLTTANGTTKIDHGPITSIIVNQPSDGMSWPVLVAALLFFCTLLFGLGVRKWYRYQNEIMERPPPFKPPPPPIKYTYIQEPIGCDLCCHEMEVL


Key:
[1] = target: T1, human CD96 long isoform v1 transiently …; test: FCM on hCD96v1-CHO cells, 10 µg/ml
[2] = target: T2, rhesus CD96 transiently expressed on …; test: flow cytometry on CHO cells transiently expressing rhesus CD96; antibody at 1 (thin line) and 10 µg/ml (thick dashed line), filled grey = isotype control
Protocol: FIG. 7: Binding profiles of anti-CD96 antibodies on CHO cells transfected with rhesus CD96. Anti-CD96 antibodies or the corresponding isotype control mAbs were tested for their capacity to recognize rhesus CD96 transiently expressed on CHO cells by flow cytometry. Each histogram represents the overlay of the fluorescence intensity obtained for each antibody tested at 1 (black line) and 10 μg/ml (thick dashed black line) and compared to the fluorescence obtained with an isotypic control (filled grey histogram).
(§1) The capacity of the identified mouse anti-human CD96 antibodies to recognize the CD96 protein from other species was further analyzed by flow cytometry by using CHO cells expressing the mouse or the rhesus CD96. The expression of the species-specific CD96 on CHO cell surface was confirmed by using staining with appropriate anti-CD96 antibodies and flow cytometry on non-fixed cells. The rat anti-mCD96 antibody clone #630612 (R&D Systems) and the candidate BL006-9-1 (positive by ELISA on rhesus CD96) were used to confirm the expression of rhesus CD96, while the clone 6A6 (rat IgG2a, e-Bioscience) was used to verify the expression of mouse CD96.
(§2) Mouse anti-CD96 antibodies and isotype control antibodies were incubated at 10 or 1 μg/mL with CHO cells expressing different CD96 species at +4° C. for 30 minutes.

[3] = target: T3, human CD96 short isoform v2 expressed …; test: flow cytometry, indirect staining of transiently transfected CHO-S cells; median % of stained cells, 3-4 experiments
Description: Expression plasmids containing either the complete sequence of hCD96v2 or different extracellular domains (D1 to D3) of hCD96v2 or combinations thereof (D1D2, D1D3 or D2D3) were transiently transfected in CHO-S cells. Each transient transfect was indirectly stained with the different anti-CD96 candidates and analyzed by flow cytometry. Represented is the median % of stained CHO-S transfect obtained from 3 to 4 independent experiments for each anti-CD96 tested.
Expression vectors coding for truncated extracellular domains of hCD96v2 (short isoform v2) were constructed to map, within the 3 described immunoglobulin domains of hCD96v2, the epitopes recognized by the anti-hCD96 candidates. All expression vectors constructed contained the signal peptide, the D4 domain, the transmembrane, the intracellular chain of […] plus a HA-Tag to monitor transfection efficiency of the various constructs. The expression vectors contained only D1, D2, D3 or combinations of those 3 domains (D1D2, D1D3, D2D3). The anti-hCD96 antibodies were tested by FCM for their capacity to recognize the truncated CD96 proteins transiently expressed on CHO-S cells.

[4] = target: T4, mouse CD96 expressed on CHO cells; test: FCM on CHO cells expressing mouse CD96
Description: as §1, §2

[5] = target: T3, human CD96 short isoform v2 expressed …; test: FCM, inhibition of hCD155-Fc binding to hCD96v2-CHO cells; relative IC50
Protocol: (§3) All candidates except BL006-2-19 that bound very weakly on hCD96v2 by FCM were tested for their capacity to inhibit the binding of human CD155 to hCD96v2 stably expressed on CHO cells. Human CD96-transfected CHO cells (3×10⁵ cells/well of 96-well plate) were incubated at +4° C. for 30 minutes with serial dilutions of anti-CD96 antibodies or isotype control antibody (in mIgG2a or mIgG2aD265A format) in the presence of 4 μg/mL of biotinylated hCD155-Fc (produced and biotinylated at BliNK).
(§4) % inhibition=(1−(MFI_wAb&CD155−MFI_CHO)/(MFI_wCD155−MFI_CHO))×100, where MFI_wAb&CD155 is the Mean Intensity Fluorescence (MFI) obtained with the hCD96-CHO cells incubated with the tested antibody and hCD155-hFc; MFI_CHO is the MFI obtained in the absence of hCD155 and mAbs; and MFI_wCD155 is the fluorescence with hCD155 but without pre-incubation with antibody (0% CD155 binding inhibition). The % of inhibition was plotted against antibody concentration and the IC50 values were calculated by using a nonlinear regression analysis model of the GraphPad Prism software.

[6] = target: T3, human CD96 short isoform v2 expressed …; test: FCM on hCD96v2-CHO cells
Protocol: FIG. 6: Binding profiles of anti-hCD96 antibodies on human CD96-transfected CHO cells (hCD96v2, short isoform). CHO cells expressing hCD96v2 were incubated with serial dilution of the indicated mIgG1 or mIgG2a anti-CD96 or isotype control antibodies. […] The results are expressed as the difference of mean fluorescence intensity (delta MFI) between cells stained with antibodies and cells without antibodies. Dose response curves were obtained from GraphPad prism software using a non-linear regression fit with a variable slope model (4 parameters). To simplify the reading, results from the various anti-hCD96 candidates are shown on 4 different panels.
The capacity of the identified mouse anti-CD96 antibodies to recognize the cell membrane expressed human CD96 was further analyzed by flow cytometry (FCM) by using CHO cells stably transfected with the CD96 short isoform v2 (CD96v2; Genbank accession number NM_005816, flanked in C-terminus with HA-tag) (SEQ ID NO: 268).
Mouse anti-CD96 antibodies and isotype control antibodies were incubated at various concentrations from 10 μg/mL to 4.6 ng/mL with CHO cells expressing human CD96 at +4° C. for 30 minutes. […] The differences between the mean fluorescence intensity (MFI) obtained for each of the antibody concentration and the intensity obtained in absence of primary antibody (delta-MFI), were calculated and plotted against the concentrations of antibodies.

[7] = target: T3, human CD96 short isoform v2 expressed …; test: FCM, inhibition of hCD155-Fc binding to hCD96v2-CHO cells
Protocol: as §3, §4

Binder	binding result [1]	binding result [2]	binding result [3]	binding result [4]	IC50 [5]	EC50 [6]	Maximum binding (delta MFI) [6]	Maximal Inhibition Capacity (%) [7]
BL006-2-19G13-19K15 (antibody, V domains shown, Recombinant mIgG2a/kappa (also made as mIgG2a-D265A); also called candidate NO 9) VH: QVQLQQPGSELVRPGASVKLSCKASGYKFTSYWMHWVKQRPGQGLEWIGSIYPGSGSTNYDEKFKRKATLTVDTFSSTASMQLSSLTSEDSAVYYCTREMAYWGQGTLVTVSA VL: DIVITQDELSNPVTSGESVSISCRSSKSLLYKDGKTYLNWFLQRPGQSPQLLVYWMSTRASGVSDRFSGSGSGTDFTLEISRVKAEDVGVYYCQQVVEYPFTFGTGTKLGIK	binds	binds	binds	no binding (tested: 1 and 10 µg/mL)	–	–	–	–
BL006-19-14G3-14K1 (antibody, V domains shown, Recombinant mIgG2a/kappa (also made as mIgG2a-D265A); also called BL006-19-14G3-14K1 #8; candidate NO 6) VH: QVTLKESGPGILQPSQTLSLTCSFSGFSLDTFGMGVGWIRQSSGKGLEWLAHIWWDDDKFYNPALKSRLTVSKDTSKNQVFLKIANVDTADTATYYCAHYYGSLSFDVWGTGTTVTVSS VL: not shown	–	binds	–	no binding (tested: 1 and 10 µg/mL)	2.67 nM	3.1 nM	694000 delta MFI	41.4%
BL006-19-29G5-29K1 (antibody, V domains shown, Recombinant mIgG2a/kappa (also made as mIgG2a-D265A); also called candidate NO 14) VH: QVTLKESGPGILQSSQTLSLTCSFSGFSLSTFGMGVSWIRKPSGKGLEWLAHIFWDDDKRYNPSLKSRLTISKDTSSNQVFLMINSMDIADTATYYCTRGSNWFAYWGQGTLVTVSA VL: DIVLTQSPASLAVSLGQRATISCRASESVDSYGNSFMHWYQQKPGQPPKLLIYRASNLESGIPARFSGSGSRTDFTLTINPVEADDVATYYCQQSNEDPLTFGAGTKLELK	–	binds	–	no binding (tested: 1 and 10 µg/mL)	5.24 nM	2.98 nM	753000 delta MFI	43.1%
BL006-8-3G9-3K4 (antibody, V domains shown, Recombinant mIgG2a/kappa (also made as mIgG2a-D265A); also called BL006-8-3G9-3K4 #6; candidate NO 4) VH: QVQLQQSGAELVRPGASVKLSCKASGYRFTDYEMEWVKQTPVHGLEWIGAIDPETGGTAYNQKFKGKATVTADKSSRTAYMELRSLTSEDSAVYYCTREGDGSYGAYWGQGTLVTVSA VL: DVMMTQTPLSLPVSLGDQASISCRSSQSIVYSNGNTYLEWYLQKPGQSPKLLMYKVSNRFSGVPDRFSGSGSGTDFTLKISRVEAEDLGVYYCFQGSHAPWTFGGGTKLEIK	–	no binding (tested: 10 µg/ml)	–	no binding (tested: 1 and 10 µg/mL)	–	4.68 nM	235000 delta MFI	< 5%
